We go through 72 molecules from US20240207421A1, “NERVE TARGETING PEPTIDES AND METHODS OF USE” (ALUME BIOSCIENCES, INC., priority 2020, published 2024).

Chain of Human Myelin Basic Protein (P02686 134-304): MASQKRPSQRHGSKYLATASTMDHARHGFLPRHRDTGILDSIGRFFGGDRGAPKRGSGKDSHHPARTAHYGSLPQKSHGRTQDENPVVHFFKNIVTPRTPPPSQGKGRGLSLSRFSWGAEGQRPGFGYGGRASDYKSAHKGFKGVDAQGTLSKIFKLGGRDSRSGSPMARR

The target of one test is Human Myelin Basic Protein (Homo sapiens, UniProt P02686). Put plainly: Phage display library screening (Example 2, Python script analysis), binding to Human Myelin Basic Protein. The note with it: R3 Myelin Basic Protein; combined unique sequence count, Python/R script analysis. On the set-up: Enzo 200-606-M001 from human; purchased Enzo 200-606-M001; host or cells: human brain (tissue-derived). The protocol:
Phage display library screens were used to identify peptides that bind to target proteins (including specific laminin trimers) that are expressed in human nerves, as described in Table 3. These screens were also carried out to identify peptides that could bind selectively to nerves versus muscle. Such peptides could therefore be useful for systemic in-vivo labeling of nerves during fluorescence assisted surgery. Specifically, m 13 phage libraries expressing 7 or 12 random amino acid peptides, or a cyclic peptide CX7C, on the N-terminus of the minor coat protein pIII (New England Biolabs; NEB) were processed through multiple rounds of selection for binding to target proteins expressed in nerves, or to excised human nerves, nerve extracts, or muscle, as described further below.
For screening against the specified target proteins in Table 1, including LN211, LN411, LN421, and LN521, the phage library was processed by up to 4 binding and wash cycles. For selection, phage libraries were incubated for up to 24 hours at 4° C. in 96 well plates that had been coated with one of the target proteins. Plates were then washed with PBS and phage were eluted using 0.2M glycine pH 2.0. Phage supernatants where then neutralized with Tris pH 9.0 prior to plating on TGI bacteria and LB agar plates. Colonies were counted to determine titer followed by DNA preparation of pools of phage and NextGen sequencing. After rounds of selection, phage were pooled and amplified for iterative selection. Phage that were bound at each round were sequenced. NextGen sequencing of pools after 2, 3 and 4 rounds of selection was used to isolate candidate sequences that were analyzed further to identify those that specifically bound each unique target protein.
Python Script Analysis: For all NEB sequence datasets, a python script was used to translate, trim, and filter the peptide sequences. The script translated the nucleotide sequences, translating amber codons as glutamine in peptide sequences, and then trimmed the end sequences that come from the vector. Secondly, the script combined the unique counts of trimmed peptides with identical sequences. […] Another python script was used to group peptides from different assays according to protein target (Myelin Protein Zero, Myelin Proteolipid Protein, Myelin Basic Protein, and Nidogen-2) and also combine the unique sequence counts for each peptide. An R script was written to merge the peptide sequences from different data files and determine peptides specific for each protein target but absent from different protein binding datasets. Peptide sequences were ranked by unique sequence count.
With “WVPDRSL (R3 Myelin Basic Protein-binding peptide)”, the Count is given as 6.

As to “VGTFWTR (R3 Myelin Basic Protein-binding peptide)”, the Count was 6.

Regarding “SVEYGQL (R3 Myelin Basic Protein-binding peptide)”, the Count worked out at 9.

Take “QGAYVRP (R3 Myelin Basic Protein-binding peptide)”: the Count was 6.

As to “SWFESHN (R3 Myelin Basic Protein-binding peptide)”, the Count worked out at 8.

Take “QGTLFDT (R3 Myelin Basic Protein-binding peptide)”: the Count turned out to be 7.

For the molecule “GPITHAI (R3 Myelin Basic Protein-binding peptide)”, the Count came to 7.

As for “HRTHLHQ (R3 Myelin Basic Protein-binding peptide)”, the Count is on record as 6.

“SGNLKKA (R3 Myelin Basic Protein-binding peptide)”: the Count turned out to be 7.

In the case of “ESKSPRE (R3 Myelin Basic Protein-binding peptide)”, the Count amounted to 6.

“FKLPWAS (R3 Myelin Basic Protein-binding peptide)”: the Count is given as 7.

As for “HSSATMS (R3 Myelin Basic Protein-binding peptide)”, the Count is 6.

For “VAHQRVS (R3 Myelin Basic Protein-binding peptide)”, the Count was determined as 8.

As for “CNRVPFKQC (R3 Myelin Basic Protein-binding peptide)”, the Count was found to be 7.

With “SIQTSAM (R3 Myelin Basic Protein-binding peptide)”, the Count is listed as 6.

As to “ARVPNPL (R3 Myelin Basic Protein-binding peptide)”, the Count is 6.

Consider “AILTRPP (R3 Myelin Basic Protein-binding peptide)”, for which the Count worked out at 7.

In the case of “HYSPNVM (R3 Myelin Basic Protein-binding peptide)”, the Count was 9.

On to “LFRRVTE (R3 Myelin Basic Protein-binding peptide)”, for which the Count is reported as 7.

For the molecule “DSYLLSA (R3 Myelin Basic Protein-binding peptide)”, the Count was found to be 8.

On to “SKPHASH (R3 Myelin Basic Protein-binding peptide)”, for which the Count came out at 6.

Turning to “SNAERWR (R3 Myelin Basic Protein-binding peptide)”, the Count is 9.

On to “QKALPQT (R3 Myelin Basic Protein-binding peptide)”, for which the Count is given as 6.

For “HLLKTHS (R3 Myelin Basic Protein-binding peptide)”, the Count is recorded as 7.

As to “SYVTVFR (R3 Myelin Basic Protein-binding peptide)”, the Count was 6.

As for “NTPKVLA (R3 Myelin Basic Protein-binding peptide)”, the Count is 10.

Take “SISKIRT (R3 Myelin Basic Protein-binding peptide)”: the Count turned out to be 7.

As to “SLKTTNP (R3 Myelin Basic Protein-binding peptide)”, the Count is on record as 6.

As for “QYWDILG (R3 Myelin Basic Protein-binding peptide)”, the Count is 6.

“TPLYLSS (R3 Myelin Basic Protein-binding peptide)”: the Count came to 7.

For “SLWTHRT (R3 Myelin Basic Protein-binding peptide)”, the Count is given as 6.

With “LTKSLNH (R3 Myelin Basic Protein-binding peptide)”, the Count was found to be 7.

For “MTNHGNA (R3 Myelin Basic Protein-binding peptide)”, the Count was determined as 7.

Turning to “QPIDSTS (R3 Myelin Basic Protein-binding peptide)”, the Count stood at 7.

In the case of “RSRKHRP (R3 Myelin Basic Protein-binding peptide)”, the Count was 6.

In the case of “HQPLFPR (R3 Myelin Basic Protein-binding peptide)”, the Count came out at 6.

“MNSPLAQ (R3 Myelin Basic Protein-binding peptide)”: the Count was 6.

“NGPNSLQ (R3 Myelin Basic Protein-binding peptide)”: the Count turned out to be 6.

For “CPRMNNPLC (R3 Myelin Basic Protein-binding peptide)”, the Count is on record as 7.

“SAVLMPP (R3 Myelin Basic Protein-binding peptide)”: the Count is reported as 6.

As for “TTTQGHP (R3 Myelin Basic Protein-binding peptide)”, the Count is listed as 6.

Turning to “YVNRVKQ (R3 Myelin Basic Protein-binding peptide)”, the Count worked out at 6.

In the case of “ALRDTRV (R3 Myelin Basic Protein-binding peptide)”, the Count is on record as 6.

Regarding “FDLLARK (R3 Myelin Basic Protein-binding peptide)”, the Count was found to be 6.

Turning to “LITHPQL (R3 Myelin Basic Protein-binding peptide)”, the Count amounted to 6.

In the case of “NSSPHQI (R3 Myelin Basic Protein-binding peptide)”, the Count stood at 7.

Turning to “YLPPPLP (R3 Myelin Basic Protein-binding peptide)”, the Count is given as 7.

Regarding “NLTYLRF (R3 Myelin Basic Protein-binding peptide)”, the Count is 6.

“KVHHLAR (R3 Myelin Basic Protein-binding peptide)”: the Count amounted to 6.

As for “QNSYLSN (R3 Myelin Basic Protein-binding peptide)”, the Count came to 8.

Turning to “SRHLPPL (R3 Myelin Basic Protein-binding peptide)”, the Count amounted to 6.

“NFAQHMQ (R3 Myelin Basic Protein-binding peptide)”: the Count worked out at 9.

As to “SKLAGFP (R3 Myelin Basic Protein-binding peptide)”, the Count was found to be 6.

On to “AAGQRSF (R3 Myelin Basic Protein-binding peptide)”, for which the Count was 7.

In the case of “YATATPS (R3 Myelin Basic Protein-binding peptide)”, the Count stood at 8.

With “WDLRHSK (R3 Myelin Basic Protein-binding peptide)”, the Count was 6.

Take “TGSVSKQ (R3 Myelin Basic Protein-binding peptide)”: the Count is listed as 6.

As to “SGPFPLV (R3 Myelin Basic Protein-binding peptide)”, the Count amounted to 6.

Another test deals with Laminin 421/521. Put plainly: phage display, NGS count.
Details: not given
Molecule GKPDHRLVSLWR had a Count of 309.

Take CSKHNHSRC: the Count was found to be 295.

CMNKIQRDC returned a Count of 131.

For the molecule MTHSAHNSQKTN, the Count was determined as 117.

In turn, WGLKLPH yielded a Count of 117.

Consider KISMNRLHANFT, for which the Count was 110.

WVAAERR gave a Count of 115.

IPVGERK came in with a Count of 124.

WDLPTLRKTKQA came in with a Count of 114.

Molecule GGYDLPWANWQN displayed a Count of 497.

Molecule CSHHKLKQC returned a Count of 359.

APKVTNARPTQL showed a Count of 147.

With KALGYSLVGGEW, the Count is 134.

QGWFRHS came in with a Count of 121.
